# Results from article PMC4434323.
# Legend:
# [1] = target: T1, F52B5.7 (F52B5.7) (Caenorhabditis elegans) (UniProt Q7YWZ7)
# T1 sequence: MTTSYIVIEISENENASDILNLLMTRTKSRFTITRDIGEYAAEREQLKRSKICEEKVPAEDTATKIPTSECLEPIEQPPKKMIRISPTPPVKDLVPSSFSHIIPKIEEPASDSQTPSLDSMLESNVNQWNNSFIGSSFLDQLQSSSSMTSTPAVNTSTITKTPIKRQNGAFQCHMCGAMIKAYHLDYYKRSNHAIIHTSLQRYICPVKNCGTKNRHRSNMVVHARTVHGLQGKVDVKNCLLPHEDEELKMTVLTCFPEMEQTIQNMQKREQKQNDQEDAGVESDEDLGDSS
# [2] = target: klf-3 (F54H5.4) (Caenorhabditis elegans) (UniProt Q65ZG6)
# klf-3 (F54H5.4) (Caenorhabditis elegans), sequence (Q65ZG6 180-315): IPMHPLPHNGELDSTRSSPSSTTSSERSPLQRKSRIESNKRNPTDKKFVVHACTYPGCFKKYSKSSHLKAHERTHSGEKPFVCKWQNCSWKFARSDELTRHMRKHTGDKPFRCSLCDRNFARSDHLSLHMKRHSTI
# [3] = target: T2, ham-2 (C07A12.1) (Caenorhabditis elegans) (UniProt H2KYH4)
# T2 sequence: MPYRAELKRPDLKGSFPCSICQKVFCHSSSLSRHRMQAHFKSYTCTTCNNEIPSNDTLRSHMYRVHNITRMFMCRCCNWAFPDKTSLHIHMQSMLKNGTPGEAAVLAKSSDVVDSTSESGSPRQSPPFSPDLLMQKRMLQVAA
# [4] = target: T3, lsy-27 (F47H4.1) (Caenorhabditis elegans) (UniProt O45526)
# T3 sequence: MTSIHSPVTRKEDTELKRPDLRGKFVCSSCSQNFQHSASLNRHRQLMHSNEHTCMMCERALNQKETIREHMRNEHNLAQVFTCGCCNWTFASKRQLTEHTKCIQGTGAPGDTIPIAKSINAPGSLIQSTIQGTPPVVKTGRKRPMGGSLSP
# [5] = target: T4, ztf-29 (Y66D12A.12) (Caenorhabditis elegans) (UniProt Q95Q03)
# T4 sequence: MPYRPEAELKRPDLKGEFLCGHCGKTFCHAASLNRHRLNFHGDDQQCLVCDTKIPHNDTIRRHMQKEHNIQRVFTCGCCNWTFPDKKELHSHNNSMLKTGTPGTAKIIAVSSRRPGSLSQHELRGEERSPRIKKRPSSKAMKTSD
# [6] = target: T5, che-1 (C55B7.12) (Caenorhabditis elegans) (UniProt Q966L8)
# T5 sequence: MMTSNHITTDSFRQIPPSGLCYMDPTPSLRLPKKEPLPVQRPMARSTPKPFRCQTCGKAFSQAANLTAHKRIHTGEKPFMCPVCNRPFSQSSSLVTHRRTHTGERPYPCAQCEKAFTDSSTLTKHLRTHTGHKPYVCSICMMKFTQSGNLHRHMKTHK
# [7] = target: T6, lsl-1 (F52F12.4) (Caenorhabditis elegans) (UniProt O02273)
# T6 sequence: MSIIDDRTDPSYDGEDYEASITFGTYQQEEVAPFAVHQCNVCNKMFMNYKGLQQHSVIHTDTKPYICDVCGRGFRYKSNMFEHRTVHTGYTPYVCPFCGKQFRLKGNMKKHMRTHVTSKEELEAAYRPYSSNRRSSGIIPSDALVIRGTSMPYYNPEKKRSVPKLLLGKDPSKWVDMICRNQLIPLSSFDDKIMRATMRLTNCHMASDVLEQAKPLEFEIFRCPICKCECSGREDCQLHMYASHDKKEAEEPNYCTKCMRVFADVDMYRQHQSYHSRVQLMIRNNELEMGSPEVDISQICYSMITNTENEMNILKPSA
# [8] = test system: T7, syd-9 (ZK867.1) (Caenorhabditis elegans)
# T7 sequence: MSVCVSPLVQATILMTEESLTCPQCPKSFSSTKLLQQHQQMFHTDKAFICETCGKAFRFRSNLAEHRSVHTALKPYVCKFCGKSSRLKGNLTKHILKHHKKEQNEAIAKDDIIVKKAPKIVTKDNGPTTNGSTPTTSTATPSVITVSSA
# [9] = target: pag-3 (F45B8.4) (Caenorhabditis elegans) (UniProt G5EDE1)
# pag-3 (F45B8.4) (Caenorhabditis elegans), sequence (G5EDE1 76-311): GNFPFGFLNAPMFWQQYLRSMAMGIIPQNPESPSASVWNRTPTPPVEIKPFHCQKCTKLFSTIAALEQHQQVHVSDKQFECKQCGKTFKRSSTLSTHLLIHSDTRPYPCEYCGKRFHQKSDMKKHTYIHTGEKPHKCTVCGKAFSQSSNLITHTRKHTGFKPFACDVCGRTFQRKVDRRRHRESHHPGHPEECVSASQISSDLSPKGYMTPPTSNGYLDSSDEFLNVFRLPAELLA
sequence,measurement,setting,value
ATGGGGTA (double strand) [8-mer ATGGGGTA],binding signal (PBM E-score (-0.5 to 0.5)),[1],0.488
AACGCCCA (double strand) [8-mer AACGCCCA],binding signal (PBM E-score (-0.5 to 0.5)),[2],0.483
AAGCTTTA (double strand) [8-mer AAGCTTTA],binding signal (PBM E-score (-0.5 to 0.5)),[3],0.482
same,binding signal (PBM E-score (-0.5 to 0.5)),[4],0.49
same,binding signal (PBM E-score (-0.5 to 0.5)),[5],0.494
AAGCTTAA (double strand) [8-mer AAGCTTAA],binding signal (PBM E-score (-0.5 to 0.5)),[3],0.493
same,binding signal (PBM E-score (-0.5 to 0.5)),[4],0.493
same,binding signal (PBM E-score (-0.5 to 0.5)),[5],0.494
CAACGCCC (double strand) [8-mer CAACGCCC],binding signal (PBM E-score (-0.5 to 0.5)),[2],0.482
GGCTTCAC (double strand) [8-mer GGCTTCAC],binding signal (PBM E-score (-0.5 to 0.5)),[4],0.49
same,binding signal (PBM E-score (-0.5 to 0.5)),[6],0.492
TACAGTAA (double strand) [8-mer TACAGTAA],binding signal (PBM E-score (-0.5 to 0.5)),[7],0.495
same,binding signal (PBM E-score (-0.5 to 0.5)),[8],0.494
CCCGCCCA (double strand) [8-mer CCCGCCCA],binding signal (PBM E-score (-0.5 to 0.5)),[2],0.485
AAAGCTTT (double strand) [8-mer AAAGCTTT],binding signal (PBM E-score (-0.5 to 0.5)),[3],0.478
same,binding signal (PBM E-score (-0.5 to 0.5)),[4],0.491
same,binding signal (PBM E-score (-0.5 to 0.5)),[5],0.496
GAAGCTTC (double strand) [8-mer GAAGCTTC],binding signal (PBM E-score (-0.5 to 0.5)),[4],0.496
same,binding signal (PBM E-score (-0.5 to 0.5)),[5],0.494
AATCACAG (double strand) [8-mer AATCACAG],binding signal (PBM E-score (-0.5 to 0.5)),[9],0.491
AAGGGCGT (double strand) [8-mer AAGGGCGT],binding signal (PBM E-score (-0.5 to 0.5)),[2],0.487
AAATCACA (double strand) [8-mer AAATCACA],binding signal (PBM E-score (-0.5 to 0.5)),[9],0.49
ATACGGTA (double strand) [8-mer ATACGGTA],binding signal (PBM E-score (-0.5 to 0.5)),[7],0.495
GTACCATA (double strand) [8-mer GTACCATA],binding signal (PBM E-score (-0.5 to 0.5)),[1],0.487
CTACGGTA (double strand) [8-mer CTACGGTA],binding signal (PBM E-score (-0.5 to 0.5)),[7],0.491
AATCACTG (double strand) [8-mer AATCACTG],binding signal (PBM E-score (-0.5 to 0.5)),[9],0.49
TACCCATA (double strand) [8-mer TACCCATA],binding signal (PBM E-score (-0.5 to 0.5)),[1],0.485
CAAATCAC (double strand) [8-mer CAAATCAC],binding signal (PBM E-score (-0.5 to 0.5)),[9],0.487
AAAATCTG (double strand) [8-mer AAAATCTG],binding signal (PBM E-score (-0.5 to 0.5)),[9],0.491
CCATGGGG (double strand) [8-mer CCATGGGG],binding signal (PBM E-score (-0.5 to 0.5)),[1],0.482
AGGGCGTG (double strand) [8-mer AGGGCGTG],binding signal (PBM E-score (-0.5 to 0.5)),[2],0.491
AGCTTCAT (double strand) [8-mer AGCTTCAT],binding signal (PBM E-score (-0.5 to 0.5)),[4],0.494
CTACTGTA (double strand) [8-mer CTACTGTA],binding signal (PBM E-score (-0.5 to 0.5)),[7],0.491
TACGCCCA (double strand) [8-mer TACGCCCA],binding signal (PBM E-score (-0.5 to 0.5)),[2],0.486
AGCTTCAC (double strand) [8-mer AGCTTCAC],binding signal (PBM E-score (-0.5 to 0.5)),[4],0.493
CCCCATAA (double strand) [8-mer CCCCATAA],binding signal (PBM E-score (-0.5 to 0.5)),[1],0.495
AAGCTTCA (double strand) [8-mer AAGCTTCA],binding signal (PBM E-score (-0.5 to 0.5)),[4],0.497
same,binding signal (PBM E-score (-0.5 to 0.5)),[5],0.489
CCCCATGA (double strand) [8-mer CCCCATGA],binding signal (PBM E-score (-0.5 to 0.5)),[1],0.495
ACCCCATG (double strand) [8-mer ACCCCATG],binding signal (PBM E-score (-0.5 to 0.5)),[1],0.486
AATCAGTG (double strand) [8-mer AATCAGTG],binding signal (PBM E-score (-0.5 to 0.5)),[9],0.491
ATGGGTAC (double strand) [8-mer ATGGGTAC],binding signal (PBM E-score (-0.5 to 0.5)),[1],0.488
AATCTGTG (double strand) [8-mer AATCTGTG],binding signal (PBM E-score (-0.5 to 0.5)),[9],0.487
CAGATTTA (double strand) [8-mer CAGATTTA],binding signal (PBM E-score (-0.5 to 0.5)),[9],0.489
CCCATGGG (double strand) [8-mer CCCATGGG],binding signal (PBM E-score (-0.5 to 0.5)),[1],0.485
CCCCATAG (double strand) [8-mer CCCCATAG],binding signal (PBM E-score (-0.5 to 0.5)),[1],0.492
AAATCTGG (double strand) [8-mer AAATCTGG],binding signal (PBM E-score (-0.5 to 0.5)),[9],0.493
TACGGTAA (double strand) [8-mer TACGGTAA],binding signal (PBM E-score (-0.5 to 0.5)),[7],0.492
CCACACCC (double strand) [8-mer CCACACCC],binding signal (PBM E-score (-0.5 to 0.5)),[2],0.486
CAAATCTG (double strand) [8-mer CAAATCTG],binding signal (PBM E-score (-0.5 to 0.5)),[9],0.489
AGCTTCTG (double strand) [8-mer AGCTTCTG],binding signal (PBM E-score (-0.5 to 0.5)),[4],0.491
ACCCATGG (double strand) [8-mer ACCCATGG],binding signal (PBM E-score (-0.5 to 0.5)),[1],0.485
AAGCTTCT (double strand) [8-mer AAGCTTCT],binding signal (PBM E-score (-0.5 to 0.5)),[4],0.496
same,binding signal (PBM E-score (-0.5 to 0.5)),[5],0.49
CTACGCCC (double strand) [8-mer CTACGCCC],binding signal (PBM E-score (-0.5 to 0.5)),[2],0.48
GTACTGTA (double strand) [8-mer GTACTGTA],binding signal (PBM E-score (-0.5 to 0.5)),[7],0.497
same,binding signal (PBM E-score (-0.5 to 0.5)),[8],0.496
TACCGTAA (double strand) [8-mer TACCGTAA],binding signal (PBM E-score (-0.5 to 0.5)),[7],0.493
AAAGCTTC (double strand) [8-mer AAAGCTTC],binding signal (PBM E-score (-0.5 to 0.5)),[4],0.492
same,binding signal (PBM E-score (-0.5 to 0.5)),[5],0.486
AGCTTCAG (double strand) [8-mer AGCTTCAG],binding signal (PBM E-score (-0.5 to 0.5)),[4],0.491
AGGGCGTA (double strand) [8-mer AGGGCGTA],binding signal (PBM E-score (-0.5 to 0.5)),[2],0.484
ATACTGTA (double strand) [8-mer ATACTGTA],binding signal (PBM E-score (-0.5 to 0.5)),[7],0.494
same,binding signal (PBM E-score (-0.5 to 0.5)),[8],0.493
GAAGCTTA (double strand) [8-mer GAAGCTTA],binding signal (PBM E-score (-0.5 to 0.5)),[3],0.482
same,binding signal (PBM E-score (-0.5 to 0.5)),[4],0.493
same,binding signal (PBM E-score (-0.5 to 0.5)),[5],0.485
GCTTCACC (double strand) [8-mer GCTTCACC],binding signal (PBM E-score (-0.5 to 0.5)),[4],0.491
AATCTCAG (double strand) [8-mer AATCTCAG],binding signal (PBM E-score (-0.5 to 0.5)),[9],0.49
CACGCCCA (double strand) [8-mer CACGCCCA],binding signal (PBM E-score (-0.5 to 0.5)),[2],0.49
CTACCGTA (double strand) [8-mer CTACCGTA],binding signal (PBM E-score (-0.5 to 0.5)),[7],0.498
ACCCCATA (double strand) [8-mer ACCCCATA],binding signal (PBM E-score (-0.5 to 0.5)),[1],0.496
TACTGTAA (double strand) [8-mer TACTGTAA],binding signal (PBM E-score (-0.5 to 0.5)),[7],0.49
same,binding signal (PBM E-score (-0.5 to 0.5)),[8],0.494
GCCCCATA (double strand) [8-mer GCCCCATA],binding signal (PBM E-score (-0.5 to 0.5)),[1],0.487
CCCCCATA (double strand) [8-mer CCCCCATA],binding signal (PBM E-score (-0.5 to 0.5)),[1],0.485
CTACAGTA (double strand) [8-mer CTACAGTA],binding signal (PBM E-score (-0.5 to 0.5)),[7],0.498
same,binding signal (PBM E-score (-0.5 to 0.5)),[8],0.49
ATGGATAC (double strand) [8-mer ATGGATAC],binding signal (PBM E-score (-0.5 to 0.5)),[1],0.485
GTACGGTA (double strand) [8-mer GTACGGTA],binding signal (PBM E-score (-0.5 to 0.5)),[7],0.494
same,binding signal (PBM E-score (-0.5 to 0.5)),[8],0.492
AAATCTGA (double strand) [8-mer AAATCTGA],binding signal (PBM E-score (-0.5 to 0.5)),[9],0.486
ATACAGTA (double strand) [8-mer ATACAGTA],binding signal (PBM E-score (-0.5 to 0.5)),[7],0.491
same,binding signal (PBM E-score (-0.5 to 0.5)),[8],0.492
GCTTAAGC (double strand) [8-mer GCTTAAGC],binding signal (PBM E-score (-0.5 to 0.5)),[3],0.493
same,binding signal (PBM E-score (-0.5 to 0.5)),[4],0.494
same,binding signal (PBM E-score (-0.5 to 0.5)),[5],0.491
GTACAGTA (double strand) [8-mer GTACAGTA],binding signal (PBM E-score (-0.5 to 0.5)),[7],0.495
same,binding signal (PBM E-score (-0.5 to 0.5)),[8],0.495
ATACCGTA (double strand) [8-mer ATACCGTA],binding signal (PBM E-score (-0.5 to 0.5)),[7],0.492
